In the supplement of paper PMC9170038:

What was measured:
MS2 coat protein [1] = experiment: apparent KD of MS2 coat protein; higher = weaker reporter binding; conditions: Eterna round: R101
Method: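 RNA-MaP: designed FMN/MS2 RNA switches (84 nt design region) are transcribed on-chip within common flanks and titrated with SNAP-549-labelled MS2 coat protein (about 1-3000 nM) in 100 mM Tris pH 7.5, 80 mM KCl, 4 mM MgCl2, without or with 200 uM FMN. Median apparent KD per design; activation ratio = KD,OFF / KD,ON.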

MS2 coat protein [2] = experiment: apparent KD of MS2 coat protein, switch OFF state (with FMN for OFF switches, without FMN for ON switches); designed switch direction (-1 OFF switch, 1 ON switch): 1; higher = weaker reporter binding; conditions: FMN input: 0 or 200 uM; Eterna round: R93 (includes R88 designs)
Summary of the method: (§1)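 Apparent KD was obtained for each design as the median of normalised binding-curve fits over its clusters. RNA switches transcribed on-chip from Illumina sequencing clusters were titrated with SNAP-549-labelled MS2 coat protein (twofold steps, 0.7 or 1.5 nM to 3 µM) in 100 mM Tris-HCl pH 7.5, 80 mM KCl, 4 mM MgCl2, without or with constant ligand.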

MS2 coat protein [3] = experiment: apparent KD of MS2 coat protein, switch ON state; designed switch direction (-1 OFF switch, 1 ON switch): 1; higher = weaker reporter binding; conditions: FMN input: 0 or 200 uM; Eterna round: R93 (includes R88 designs)
Summary of the method: as §1

AAAGAUUUUUAAGGAUAUCAGUGGCAAAGCCACUGAGAAGGUGAGGAUCACCCACCUACGUGACGCUGGAAACAGCGUCACGAA [#SharedSequence ExNG1 - 25] (puzzle (switch architecture): Exclusion NG 1)
apparent KD of MS2 coat protein (MS2 coat protein [1]; input ligand: FMN 200 uM): 12.7 nM
apparent KD of MS2 coat protein (MS2 coat protein [1]; input ligand: none): 13 nM

GCCUAACAUGAGGAUCACCCAUGUAGUGGGUUGUUAGGAUAUGGGCCGUGUAACACUGCACCAGAAGGAAUAGAAG [Atinanqu]
apparent KD of MS2 coat protein (MS2 coat protein [2]): 532 nM
apparent KD of MS2 coat protein (MS2 coat protein [3]): 382 nM

GCGGUGUAGGUACAGGAUAUGUUGCUCGUAACAUGAGGAUCACCCAUGUACCUAUGAGAUUAAAUGCAGAAGGGUGCACACCACG [Zaalaes]
apparent KD of MS2 coat protein (MS2 coat protein [2]): 2.41 nM
apparent KD of MS2 coat protein (MS2 coat protein [3]): 21.5 nM

GGAAGACAUGAGGAUCACCCAUGUGGGAAUAUGGGAGGAUAUACAAAGACGAGAGUCAGAGUAGAAGGCCUAGGAC [salish99-ss1-102]
apparent KD of MS2 coat protein (MS2 coat protein [2]): 105 nM
apparent KD of MS2 coat protein (MS2 coat protein [3]): 32.8 nM

GGAAGACAUGAGGAUCACCCAUGUGGGAAUAUGGGAGGAUAUACAAAGACGAGAGUCAGAGUAGAAGGCCUAGGCC [salish99-ss1-103(!)]
apparent KD of MS2 coat protein (MS2 coat protein [2]): 126 nM
apparent KD of MS2 coat protein (MS2 coat protein [3]): 54.3 nM

GGAAGACAUGAGGAUCACCCAUGUGGGAUUAUGGGAGGAUAUACAAAGACGAGAGUCAGAGUAGAAGGCCUAGGAC [salish99-ss1-123(!)]
apparent KD of MS2 coat protein (MS2 coat protein [2]): 61.4 nM
apparent KD of MS2 coat protein (MS2 coat protein [3]): 31.1 nM

GGAAGGAAGAGAGAGGAUAUCCAAAGGAAAACAUGAGGAUCACCCAUGUAAAAGGUAGGAAAUUGGGAGAAGGCUCAAAAGAGAG [salish99-ss2-036]
apparent KD of MS2 coat protein (MS2 coat protein [2]): 14 nM
apparent KD of MS2 coat protein (MS2 coat protein [3]): 18.6 nM

GGAGCCGACACUGAGGAUAUUCAUAUUAAAACAUGAGGAUCACCCAUGUAGGCCAGAAGGCCUUGGGAGAAGGCAGGCCGGCUCG [Inxebi]
apparent KD of MS2 coat protein (MS2 coat protein [2]): 256 nM
apparent KD of MS2 coat protein (MS2 coat protein [3]): 19.3 nM

GGAGCCGGUACUGAGGAUAUUCAUAUUAAAACAUGAGGAUCACCCAUGUAGGCCAGAAGGCCUUGGGAGAAGGCAGACCAGCUCG [Atgexeedri]
apparent KD of MS2 coat protein (MS2 coat protein [2]): 273 nM
apparent KD of MS2 coat protein (MS2 coat protein [3]): 19.1 nM

GGCUGCGAUGUGAAGGAUAUCCGCGACUGGACAUGAGGAUCACCCAUGUAUGCUUGGAACAUGCCGGAGAAGGUCACGAAUGAUU [JR_SS002_Sub1216]
apparent KD of MS2 coat protein (MS2 coat protein [2]): 30.2 nM
apparent KD of MS2 coat protein (MS2 coat protein [3]): 18.7 nM

GGGAGACAUGAGGAUCACCCAUGUGAGAAGAGGCGAGGAUAUCGAAAAAAAAAAAAAAAACGAGAAGGCGCGAGAG [salish99-SS1-005]
apparent KD of MS2 coat protein (MS2 coat protein [2]): 28.6 nM
apparent KD of MS2 coat protein (MS2 coat protein [3]): 63.7 nM

GGGAGGAAGAGAGAGGAUAUCCAAAGGAAAACAUGAGGAUCACCCAUGUAAAAGGUAGGAAAUUGGGAGAAGGCUCAAGAGACGG [salish99-ss2-053]
apparent KD of MS2 coat protein (MS2 coat protein [2]): 34.2 nM
apparent KD of MS2 coat protein (MS2 coat protein [3]): 26.7 nM

GGGCAAGAGAGAGAGGAUAUCCAAAGGAAAACAUGAGGAUCACCCAUGUAGAAGGUAGGAAAUUGGGAGAAGGCUCAAGAGAGAG [salish99-ss2-137]
apparent KD of MS2 coat protein (MS2 coat protein [2]): 12.6 nM
apparent KD of MS2 coat protein (MS2 coat protein [3]): 8.51 nM

GGGUAAGAGAGAGAGGAUAUCCAAAGGAAAACAUGAGGAUCACCCAUGUAGAAGGUAGGAAAUUGGGAGAAGGCUCAAGAGAGAG [salish99-ss2-136]
apparent KD of MS2 coat protein (MS2 coat protein [2]): 29.7 nM
apparent KD of MS2 coat protein (MS2 coat protein [3]): 29.8 nM

GGUACAUCUAGUUAGGAUAUCAGAUGUAAGACAUGAGGAUCACCCAUGUCCUAAGAAUAGGUAACUGAGAAGGAACAGGGAGUCC [JR_SS002_Sub417]
apparent KD of MS2 coat protein (MS2 coat protein [2]): 29.8 nM
apparent KD of MS2 coat protein (MS2 coat protein [3]): 36.5 nM

GGUACGGCUAGUCAGGAUAUCAGGCGUAAGACAUGAGGAUCACCCAUGUCCUAAGAACAGGUAACUGAGAAGGGACAGGGCGUCC [JR_SS002_Sub414]
apparent KD of MS2 coat protein (MS2 coat protein [2]): 63.1 nM
apparent KD of MS2 coat protein (MS2 coat protein [3]): 28.8 nM

GGUACUACAGAUCAGGAUAUGUUUGGGUAAACAUGAGGAUCACCCAUGUGUGCCCGAUACACAGCACAGAAGGGAUAACGUGGGA [Ditia]
apparent KD of MS2 coat protein (MS2 coat protein [2]): 21.4 nM
apparent KD of MS2 coat protein (MS2 coat protein [3]): 16.2 nM

GUAGACAUAGUUCAGGAUAUAGGAAUAGUCACAUGAGGAUCACCCAUGUGCAUUUAUAUGCGCACUUAGAAGGGAGGUAGUUAAC [Mat - Same state - Malcolm Mod - D121]
apparent KD of MS2 coat protein (MS2 coat protein [2]): 25 nM
apparent KD of MS2 coat protein (MS2 coat protein [3]): 26.3 nM

GUAUAUAUGAGGUAGGAUAUCCAAAAUAAAACAUGAGGAUCACCCAUGUAAAUAAAUAAUAAAUGGGAGAAGGACCACAUAUAUAC [Ex6 sub 3]
apparent KD of MS2 coat protein (MS2 coat protein [2]): 34.2 nM
apparent KD of MS2 coat protein (MS2 coat protein [3]): 16.2 nM

GUGAGACAUGAGGAUCACCCAUGUACGCGUCAGCAAGGAUAUGGGAAUAAAAGACAGAGACCAGAAGGUGCUGUUG [Arzaerri]
apparent KD of MS2 coat protein (MS2 coat protein [2]): 67.5 nM
apparent KD of MS2 coat protein (MS2 coat protein [3]): 22.9 nM

GUGGACAUAGUUCAGGAUAUAUGAAUAGUCACAUGAGGAUCACCCAUGUCCAUUUAUAUGGGCACAUAGAAGGGAGGUAGUUAAC [Mat - Same state - Malcolm Mod - D124]
apparent KD of MS2 coat protein (MS2 coat protein [2]): 744 nM
apparent KD of MS2 coat protein (MS2 coat protein [3]): 451 nM

UAAAAACAUGAGGAUCACCCAUGUGAGAACAUGGGAGGAUAUACAAAGACGAAAGUCGAAGUAGAAGGCCUAAAAU [Mat - Same State 1 - Mod - D173]
apparent KD of MS2 coat protein (MS2 coat protein [2]): 25.7 nM
apparent KD of MS2 coat protein (MS2 coat protein [3]): 178 nM

UAAAAACAUGAGGAUCACCCAUGUGAGAACAUGGGAGGAUAUACAAGGACGAAAGUCAAGGUAGAAGGCCUAAAAU [Mat - Same State 1 - Mod - D175]
apparent KD of MS2 coat protein (MS2 coat protein [2]): 29.3 nM
apparent KD of MS2 coat protein (MS2 coat protein [3]): 160 nM

UAAAAACAUGAGGAUCACCCAUGUGAGAACAUGGGAGGAUAUACGAGGACGAAAGUCAAAGUAGAAGGCCUAAAAG [Garnet 84]
apparent KD of MS2 coat protein (MS2 coat protein [2]): 101 nM
apparent KD of MS2 coat protein (MS2 coat protein [3]): 272 nM

UAAUAAUAAACCAAGGAUAUGGAGUUUCCAACAUGAGGAUCACCCAUGUUUUGCUUGUAAUCGAUCCAGAAGGUGGAGCCAAAUA [JR_SS002_Sub1006]
apparent KD of MS2 coat protein (MS2 coat protein [2]): 68.4 nM
apparent KD of MS2 coat protein (MS2 coat protein [3]): 35.6 nM

UACAGACAUGAGGAUCACCCAUGUAGAAUUAUGGGAGGAUAUACAAAGACGAGAGUCAGAGUAGAAGGCCUAGGAC [salish99-ss1-166]
apparent KD of MS2 coat protein (MS2 coat protein [2]): 62.7 nM
apparent KD of MS2 coat protein (MS2 coat protein [3]): 27.3 nM

UAUAGACAUGAGGAUCACCCAUGUAGAAUUAUGGGAGGAUAUACAAAGACGAGAGUCAGAGUAGAAGGCCUAGGAC [salish99-ss1-155]
apparent KD of MS2 coat protein (MS2 coat protein [2]): 49.6 nM
apparent KD of MS2 coat protein (MS2 coat protein [3]): 22.6 nM

UAUCCGGCAGUGUAGGAUAUGUUGUAGUAAACAUGAGGAUCACCCAUGUGGAUUAUAUAAGAUUCACAGAAGGGCACUGCAUUGC [Laonis]
apparent KD of MS2 coat protein (MS2 coat protein [2]): 226 nM
apparent KD of MS2 coat protein (MS2 coat protein [3]): 265 nM

UCGUCCUCGUGCUAGGAUAUCCAUCGUAAAACAUGAGGAUCACCCAUGUAGAAAUGCGCCGACGAGGAGAAGGAGCGAUGUGGAU [Lazabima]
apparent KD of MS2 coat protein (MS2 coat protein [2]): 18.5 nM
apparent KD of MS2 coat protein (MS2 coat protein [3]): 14.5 nM

UGAAGACAUGAGGAUCACCCAUGUGGGAAUAUGGGAGGAUAUACAAAGACGAGAGUCAGAGUAGAAGGCCUAGGAU [salish99-ss1-96]
apparent KD of MS2 coat protein (MS2 coat protein [2]): 154 nM
apparent KD of MS2 coat protein (MS2 coat protein [3]): 36.7 nM

UGGAGACAUGAGGAUCACCCAUGUGAGAAGAGGCGAGGAUAUCGAAAGAAAGAAGAGAAACGAGAAGGCGCGAGAA [salish99-SS1-033]
apparent KD of MS2 coat protein (MS2 coat protein [2]): 36.7 nM
apparent KD of MS2 coat protein (MS2 coat protein [3]): 13 nM

UGGAGACAUGAGGAUCACCCAUGUGAGAAGAGGCGAGGAUAUCGAAAGAAAGAAGAGAAACGAGAAGGCGCGAGAG [salish99-SS1-041]
apparent KD of MS2 coat protein (MS2 coat protein [2]): 51.2 nM
apparent KD of MS2 coat protein (MS2 coat protein [3]): 42.7 nM

UGGAGACAUGAGGAUCACCCAUGUGAGAAGAGGCGAGGAUAUCGAAAGAAAGAAGAGAAACGAGAAGGCGCGAGUC [salish99-SS1-046]
apparent KD of MS2 coat protein (MS2 coat protein [2]): 41 nM
apparent KD of MS2 coat protein (MS2 coat protein [3]): 28.3 nM

UGUAGGAAGAGAGAGGAUAUCCAAAGGAAAACAUGAGGAUCACCCAUGUAAAAGGUAGGAAAUUGGGAGAAGGCUCAAGAGAGAG [salish99-ss2-082]
apparent KD of MS2 coat protein (MS2 coat protein [2]): 52.7 nM
apparent KD of MS2 coat protein (MS2 coat protein [3]): 29 nM

UUAAAACAUGAGGAUCACCCAUGUAGAAAUAUGGGAGGAUAUACGAAGACGAAAGUCAAAGUAGAAGGCCUAAAUU [Mat - Same State 1 - Eli mod - D112]
apparent KD of MS2 coat protein (MS2 coat protein [2]): 64.9 nM
apparent KD of MS2 coat protein (MS2 coat protein [3]): 25.2 nM

UUACGUACGUAUGAGGAUAUCCAUAAUAAGACAUGAGGAUCACCCAUGUAAACAAAACAAUAAUGGGAGAAGGCAUACGUACGAA [Mat - Same state - Malcolm Mod - D135]
apparent KD of MS2 coat protein (MS2 coat protein [2]): 47.3 nM
apparent KD of MS2 coat protein (MS2 coat protein [3]): 23.2 nM
